Target: Firefly Luciferase, heat-aggregated [luciferase: P08659]
Assay: co-sedimentation; 1.5 μM ClpG-DWB with 2 μM aggregated Luciferase in buffer A (50 mM Tris pH 7.5, 50 mM KCl, 10 mM MgCl2, 2 mM DTT), 2 mM ATP, 25 °C, 10 min; 1 μM DnaK with 0.2 μM DnaJ added to selected reactions; centrifugation at 13,000 rpm, pellet washed once; SDS-PAGE, Coomassie, ImageJ; control without aggregated Luciferase

P. aeruginosa ClpGGI-E383A/E732A (enzyme)
fold reduction of binding on addition of DnaK (with DnaJ): 1.86 fold

From publication PMC6995612
